Values quoted from earlier work, collected in patent US20230355537A1, “PROMOTING TRAINED IMMUNITY WITH THERAPEUTIC NANOBIOLOGIC COMPOSITIONS” (Icahn School of Medicine at Mount Sinai, priority 2017, published 2023).

Experiments:
PD-1 = target: T1, PD-1 (Homo sapiens, UniProt Q15116)
T1 construct: A phase II clinical trial in subjects with diffuse large B-cell lymphoma (DLBCL); host or cells: human trial subjects (endogenous PD-1 on their immune cells)

PD-L1 = target: T2, PD-L1 (Homo sapiens, UniProt Q9NZQ7); conditions: in vivo
T2 construct: in subjects with advanced-stage NSCLC, melanoma, RCC, or ovarian cancer; host or cells: human trial subjects (endogenous PD-L1 on tumour and immune cells)
T2 sequence (Q9NZQ7 19-290): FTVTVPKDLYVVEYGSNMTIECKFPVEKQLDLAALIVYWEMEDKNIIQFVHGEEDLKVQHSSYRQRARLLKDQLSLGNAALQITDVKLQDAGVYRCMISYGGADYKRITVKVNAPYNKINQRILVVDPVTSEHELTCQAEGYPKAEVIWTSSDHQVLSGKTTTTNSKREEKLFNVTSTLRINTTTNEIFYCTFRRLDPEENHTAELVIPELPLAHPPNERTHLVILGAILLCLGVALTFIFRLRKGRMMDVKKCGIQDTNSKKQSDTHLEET

T1 sequence (Q15116 25-288): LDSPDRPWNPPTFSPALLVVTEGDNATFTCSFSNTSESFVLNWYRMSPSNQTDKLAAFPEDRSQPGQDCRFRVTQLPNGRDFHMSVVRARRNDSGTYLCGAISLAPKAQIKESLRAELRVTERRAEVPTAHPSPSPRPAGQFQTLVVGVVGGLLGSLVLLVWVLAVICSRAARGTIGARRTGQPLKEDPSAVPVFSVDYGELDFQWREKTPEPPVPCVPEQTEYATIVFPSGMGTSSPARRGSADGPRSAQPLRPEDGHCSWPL

subjects alive (PD-1; DLBCL, preliminary results)	subjects progression-free at the end of the follow-up period (PD-1; DLBCL, preliminary results)	clinical activity (PD-L1)	Substance	activity of natural killer cells (PD-1; in vivo)
82%	70%		CT-011: humanized IgGl monoclonal antibody against PD-I	augments
		durable clinical activity	Medi 4736: anti-PD-LI antibody	
